Results reported in PMC12658125, “Oligomerisation of Ku from Mycobacterium tuberculosis promotes DNA synapsis” (Nature Communications, 2025).
Numbering of substitutions follows the chain as printed. In names and notes the source's numbering stands.

What was measured:
[1] = molecular target: T1, Ku-Mtb L13A/V14A (Mycobacterium tuberculosis, UniProt P9WKD9 1-273, L13A;V14A); test: cryo-EM; settings: protein: recombinant; tags: His (Ni-NTA purified); chain copies: 2; label: 5' FAM on strand 1; 3' overhang 20 nt on strand 1
T1 sequence: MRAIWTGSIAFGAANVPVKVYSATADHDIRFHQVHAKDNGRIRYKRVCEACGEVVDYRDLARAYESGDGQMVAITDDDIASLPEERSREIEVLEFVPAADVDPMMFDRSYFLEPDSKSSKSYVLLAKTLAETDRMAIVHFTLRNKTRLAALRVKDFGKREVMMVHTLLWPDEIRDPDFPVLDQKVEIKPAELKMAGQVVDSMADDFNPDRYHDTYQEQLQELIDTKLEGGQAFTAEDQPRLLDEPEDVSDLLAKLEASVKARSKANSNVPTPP

[2] = molecular target: the molecule itself; test: cryo-EM structure; apo Ku-Mtb without DNA; 20 mM Tris-HCl pH 8, 75 mM NaCl, 5 mM MgCl2, 2 mM DTT, 8 mM CHAPSO; C2 symmetry imposed; step: protomers to homodimer
[3] = molecular target: the molecule itself; test: cryo-EM micrographs and 2D class averages

B1: FAM-DNA, 32 bp with 3' 20dT overhang (mixed)
DNA 1: GGAATGTAACCATCGTTGGTCGGCAGCAGGGCTTTTTTTTTTTTTTTTTTTT
DNA 2: GCCCTGCTGCCGACCAACGATGGTTACATTCC
B1: binds [1].

B2: Ku protein from Mycobacterium tuberculosis, wild type (natural protein)
chain: T1 sequence with A13L, A14V
notes: also called Ku-Mtb; KuMtb
B2 was tested, and the “stoichiometry N” value [2] was 2.

B3: Ku-Mtb S201A/Q197A double mutant (natural protein)
chain: T1 sequence with A13L, A14V, Q197A, S201A
notes: source: over-expressed, purified
B3: binds [3].
